Results reported in publication PMC7231638.
Like-named read-outs stand apart in the source and are kept apart here.

How the values were obtained:
Mre11ND Y187F [1] = biological target: T1, Mre11ND Y187F (Pyrococcus furiosus, UniProt Q8U1N9 1-342, Y187F); assay: NMR imino proton melting
Mre11ND Y187C [2] = biological target: T2, Mre11ND Y187C (Pyrococcus furiosus, UniProt Q8U1N9 1-342, Y187C); assay: fluorescence polarization
[3] = biological target: T3, Mre11 Y187C (in MRNBD);Rad50NBD (Pyrococcus furiosus;Pyrococcus furiosus, UniProt Q8U1N9;P58301 1-426;1-195+709-882, Y187C|internal_change); assay: fluorescence polarization
[4] = biological target: T4, Mre11 H52S (in MRNBD);Rad50NBD (Pyrococcus furiosus;Pyrococcus furiosus, UniProt Q8U1N9;P58301 1-426;1-195+709-882, H52S|internal_change); assay: fluorescence polarization
[5] = biological target: T5, Mre11 WT (in MRNBD);Rad50NBD (Pyrococcus furiosus;Pyrococcus furiosus, UniProt Q8U1N9;P58301 1-426;1-195+709-882, |internal_change); assay: fluorescence polarization
Mre11ND WT [6] = biological target: T6, Mre11ND WT (Pyrococcus furiosus, UniProt Q8U1N9 1-342); assay: fluorescence polarization
Mre11ND Y187F [7] = biological target: T1, Mre11ND Y187F; assay: fluorescence polarization
Mre11ND H52S [8] = biological target: T7, Mre11ND H52S (Pyrococcus furiosus, UniProt Q8U1N9 1-342, H52S); assay: fluorescence polarization
[9] = biological target: T8, Mre11 Y187F (in MRNBD);Rad50NBD (Pyrococcus furiosus;Pyrococcus furiosus, UniProt Q8U1N9;P58301 1-426;1-195+709-882, Y187F|internal_change); assay: fluorescence polarization
Mre11ND Y187F [10] = biological target: T1, Mre11ND Y187F; assay: fluorescence polarization; remark: listed apart in the source
Mre11ND H52S [11] = biological target: T7, Mre11ND H52S; assay: fluorescence polarization; remark: listed apart in the source
[12] = biological target: T3, Mre11 Y187C (in MRNBD);Rad50NBD; assay: fluorescence polarization; remark: listed apart in the source
[13] = biological target: T4, Mre11 H52S (in MRNBD);Rad50NBD; assay: fluorescence polarization; remark: listed apart in the source
[14] = biological target: T5, Mre11 WT (in MRNBD);Rad50NBD; assay: fluorescence polarization; remark: listed apart in the source
[15] = biological target: T8, Mre11 Y187F (in MRNBD);Rad50NBD; assay: fluorescence polarization; remark: listed apart in the source
Mre11ND Y187C [16] = biological target: T2, Mre11ND Y187C; assay: fluorescence polarization; remark: listed apart in the source
Mre11ND WT [17] = biological target: T6, Mre11ND WT; assay: fluorescence polarization; remark: listed apart in the source

B1: hairpin dsDNA DSB mimic (structured_DNA)
DNA: CACGCACGTAGAAGCTTTTGCTTCTACGTGCGTGACT
- binding result (Mre11ND Y187F [1]): binds

B2: FAM 40-mer ssDNA (ssDNA)
DNA: GTGTTCGGACTCTGCCTCAAGACGGTAGTCAACGTGCTTG
- Kd (Mre11ND Y187C [2]): 240 nM
- Kd [3]: 210 nM
- Kd [4]: 170 nM
- Kd [5]: 180 nM
- Kd (Mre11ND WT [6]): 130 nM
- Kd (Mre11ND Y187F [7]): 110 nM
- Kd (Mre11ND H52S [8]): 170 nM
- Kd [9]: 190 nM

B3: FAM 40-mer dsDNA (dsDNA)
DNA 1: B2 DNA
DNA 2: CAAGCACGTTGACTACCGTCTTGAGGCAGAGTCCGAACAC
- Kd (Mre11ND Y187F [10]): 710 nM
- Kd (Mre11ND H52S [11]): 3170 nM
- Kd [12]: 1800 nM
- Kd [13]: 4170 nM
- Kd [14]: 1410 nM
- Kd [15]: 1320 nM
- Kd (Mre11ND Y187C [16]): 1980 nM
- Kd (Mre11ND WT [17]): 1300 nM
